Sequences and labels used below:
B1: Phage-3350 (Peptide-180 library peptide) (peptide)
peptide: GDIRCVPEWMCSGL
modifications: cysteine pairing not given here; also: fused to pIII of bacteriophage
notes: tested as crude clonal phage supernatant
B2: Phage-3342 (peptide)
peptide: MEPVCKPKWMCQGF
modifications: cysteine pairing not given here; also: fused to pIII of bacteriophage
notes: not shown: fused to pIII of the bacteriophage
B3: Phage-3341 (peptide)
peptide: QYPVCKPAWMCEGF
modifications: cysteine pairing not given here; also: fused to pIII of bacteriophage
notes: as for B2
B4: Phage-3347 (peptide)
peptide: QSPMCKPDWMCLGF
modifications: cysteine pairing not given here; also: fused to pIII of bacteriophage
notes: as for B2
B5: Phage-3337 (peptide)
peptide: LEVLCKPTWMCVGF
modifications: cysteine pairing not given here; also: fused to pIII of bacteriophage
notes: as for B2
B6: Phage-3339 (peptide)
peptide: TASMCKPPWMCLGF
modifications: cysteine pairing not given here; also: fused to pIII of bacteriophage
notes: as for B2
B7: Phage-3344 (peptide)
peptide: MERLCMPSWMCGGF
modifications: cysteine pairing not given here; also: fused to pIII of bacteriophage
notes: as for B2
B8: Phage-3338 (peptide)
peptide: VDALCRPSWMCIGF
modifications: cysteine pairing not given here; also: fused to pIII of bacteriophage
notes: as for B2
B9: Phage-3346 (peptide)
peptide: SEYRCVPNWMCSGF
modifications: cysteine pairing not given here; also: fused to pIII of bacteriophage
notes: as for B2
B10: Phage-3343 (peptide)
peptide: TAPMCKPEWMCVAL
modifications: cysteine pairing not given here; also: fused to pIII of bacteriophage
notes: as for B2
B11: Phage-3348 (peptide)
peptide: YEQRCVPVWMCEGF
notes: as for B2
B12: Phage-3340 (peptide)
peptide: MHFHCKPAWMCQGL
modifications: cysteine pairing not given here; also: fused to pIII of bacteriophage
notes: as for B2
B13: Phage-3349 (peptide)
peptide: HIKECTPRWMCVGF
modifications: cysteine pairing not given here; also: fused to pIII of bacteriophage
notes: as for B2
B14: Phage-3336 (peptide)
peptide: IVDICKPSWMCEGF
modifications: cysteine pairing not given here; also: fused to pIII of bacteriophage
notes: as for B2
B15: Phage-3345 (peptide)
peptide: GELKCIPPWMCEGF
modifications: cysteine pairing not given here; also: fused to pIII of bacteriophage
notes: as for B2

Where no end group is shown, it is not given here.

For one assay, the target named is T1, PSMA Fab (006 PSMA Fab).
T1 construct: also called Anti-PSMA Fab
The assay can be described thus: phage ELISA: clonal phage supernatant on biotinylated PSMA Fab captured on neutravidin plate, blocking buffer alone; anti-M13 HRP detection.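 Further: crude clonal phage supernatants added to wells preincubated with blocking buffer, incubated briefly, bound phage detected with a horseradish-conjugated anti-M13 antibody.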 In general terms: In an ELISA, binding on a coated surface is turned into a signal by an enzyme label.
Procedure: (§1) Clonal phage were harvested as crude supernatants and screened via standard ELISAs. […] Prior to the addition of clonal phage. wells were incubated with blocking buffer and PSMA antigen or blocking buffer alone. Without washing or aspirating, clonal phage supernatants were then added to the wells and incubated for a short time. Wells were then washed followed by detection of bound phage using a horse radish conjugated anti-M13 antibody.
On to B1, for which the “phage binding ELISA signal” value is 1.82.

The next assay deals with T2, PSMA Fab.
T2 construct: In the panning ELISA the PSMA Fab was biotinylated and captured on neutravidin coated plates; also called Anti-PSMA Fab; 006 PSMA Fab
Put plainly: clonal phage ELISA on biotinylated PSMA Fab captured on neutravidin, anti-M13 HRP detection, blocking buffer alone.
Procedure: as §1
Regarding LQVMCVPRWMCEGF [Phage-3319], the “Phage binding ELISA signal, Anti-PSMA Fab” value is 1.86.
The same measure, in the same setting: next, VGHVCIPSWMCDGM [Phage-3320]: 1.86; WVIKCVPSWMCAGL [Phage-3321]: 1.85; SSVMCIPQWMCSGF [Phage-3317]: 1.86.
Same read-out and setting: next, LPIMCKPQWMCNGF [Phage-3318]: 1.86.

The next assay deals with T3, PSMA Fab (biotinylated (site not stated)).
T3 construct: Biotinylated PSMA Fab captured on neutravidin coated plates in the phage ELISA; also called Anti-PSMA Fab; 006 PSMA Fab
Put plainly: clonal phage ELISA on captured PSMA Fab, wells pre-incubated with PSMA antigen as competitor; anti-M13 HRP detection.
On to AGSMCTPMWMCTGF [Phage-3323], for which the “phage binding ELISA signal” value came to 0.0744.
Still for that read-out and setting: the value for IMPKCVPSWMCTGL [Phage-3322] was 0.153.
As to PELWCVPSWMCEGF [Phage-3332], the “phage binding ELISA signal” value is 0.0867.
Regarding EGRYCVPEWMCQGF [Phage-3335], the “phage binding ELISA signal” value amounted to 0.0864.
The same measure, in the same setting: next, IDRMCKPVWMCEGF [Phage-3334]: 0.123; VAPICRPSWMCEWL [Phage-3328]: 0.0837; IEFLCKPMWMCNGF [Phage-3333]: 0.0658.
On to IGVVCKPLWMCHGF [Phage-3327], for which the “phage binding ELISA signal” value is 0.0971.
In the case of VGPRCVPEWMCIGL [Phage-3324], the “phage binding ELISA signal” value amounted to 0.0954.
VDRLCSPAWMCLGF [Phage-3329]: the “phage binding ELISA signal” value was 0.0785.
Still for that read-out and setting: the value for VNELCIPSWMCNGF [Phage-3331] was 0.0845.
QVVMCTPEWMCSGF [Phage-3326]: the “phage binding ELISA signal” value stood at 0.0905.
As to MEAMCRPAWMCAGF (cysteine pairing not given here; also: fused to pIII of bacteriophage) [Phage-3330], the “phage binding ELISA signal” value turned out to be 0.0662.
On the same count and under the same terms, next, MYIHCVPEWMCRGF [Phage-3325]: 0.0941.

The target in a further assay is T4, PSMA Fab (006 PSMA Fab) (biotinylated (site not stated)).
T4 construct: also called Anti-PSMA Fab; anti-PSMA Fab
Put plainly: clonal phage ELISA on captured PSMA Fab, wells pre-incubated with PSMA antigen as competitor.
Regarding B2, the “phage binding ELISA signal (Anti-PSMA Fab with PSMA)” value turned out to be 0.07.
Take B3: the “phage binding ELISA signal (Anti-PSMA Fab with PSMA)” value stood at 0.0971.
Regarding B4, the “phage binding ELISA signal (Anti-PSMA Fab with PSMA)” value worked out at 0.0728.
On to B5, for which the “phage binding ELISA signal (Anti-PSMA Fab with PSMA)” value is 0.078.
Consider B6, for which the “phage binding ELISA signal (Anti-PSMA Fab with PSMA)” value was found to be 0.0684.
Turning to B7, the “phage binding ELISA signal (Anti-PSMA Fab with PSMA)” value was 0.0822.
Still for that read-out and setting: next, B8: 0.0688; B9: 0.0791; B10: 0.0952.
Still for that read-out and setting: the value for B11 was 0.0675; that for B12 was 0.0998; that for B13 was 0.078.
The same measure, in the same setting: the value for B14 was 0.0649; that for B15 was 0.0808.

Another assay addresses T1, PSMA Fab (006 PSMA Fab). The assay can be described thus: phage ELISA: clonal phage supernatant on biotinylated PSMA Fab captured on neutravidin plate, wells pre-incubated with PSMA antigen as competitor; anti-M13 HRP detection.
Procedure: as §1
In the case of B1, the “phage binding ELISA signal” value stood at 0.0749.

A further assay has as its target T3, PSMA Fab. The assay can be described thus: clonal phage ELISA on biotinylated PSMA Fab captured on neutravidin plates, blocking buffer alone; anti-M13 HRP detection.
Procedure: as §1
As for AGSMCTPMWMCTGF [Phage-3323], the “phage binding ELISA signal” value amounted to 1.85.
Same read-out and setting: next, IMPKCVPSWMCTGL [Phage-3322]: 1.85; PELWCVPSWMCEGF [Phage-3332]: 1.84.
Turning to EGRYCVPEWMCQGF [Phage-3335], the “phage binding ELISA signal” value turned out to be 1.84.
Regarding IDRMCKPVWMCEGF [Phage-3334], the “phage binding ELISA signal” value was 1.84.
On the same count and under the same terms, the value for VAPICRPSWMCEWL [Phage-3328] was 1.84; that for IEFLCKPMWMCNGF [Phage-3333] was 1.84; that for IGVVCKPLWMCHGF [Phage-3327] was 1.85.
Consider VGPRCVPEWMCIGL [Phage-3324], for which the “phage binding ELISA signal” value was determined as 1.85.
Same read-out and setting: next, VDRLCSPAWMCLGF [Phage-3329]: 1.84; VNELCIPSWMCNGF [Phage-3331]: 1.84; QVVMCTPEWMCSGF [Phage-3326]: 1.85.
Same read-out and setting: next, MEAMCRPAWMCAGF (cysteine pairing not given here; also: fused to pIII of bacteriophage) [Phage-3330]: 1.84; MYIHCVPEWMCRGF [Phage-3325]: 1.85.

The target of a further assay is T2, PSMA Fab. The assay can be described thus: clonal phage ELISA on biotinylated PSMA Fab captured on neutravidin, anti-M13 HRP detection, wells pre-incubated with saturating PSMA antigen as competitor.
Procedure: as §1
As for LQVMCVPRWMCEGF [Phage-3319], the “Phage binding ELISA signal, Anti-PSMA Fab with PSMA antigen” value was 0.104.
Still for that read-out and setting: next, VGHVCIPSWMCDGM [Phage-3320]: 0.0683.
As for WVIKCVPSWMCAGL [Phage-3321], the “Phage binding ELISA signal, Anti-PSMA Fab with PSMA antigen” value turned out to be 0.0907.
On the same count and under the same terms, the value for SSVMCIPQWMCSGF [Phage-3317] was 0.0899; that for LPIMCKPQWMCNGF [Phage-3318] was 0.08.

Another assay addresses T4, PSMA Fab (006 PSMA Fab). The assay can be described thus: clonal phage ELISA on biotinylated PSMA Fab captured on neutravidin, anti-M13-HRP detection.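 Further: crude clonal phage supernatants added to wells preincubated with PSMA antigen in blocking buffer or with blocking buffer alone, brief binding period.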
Procedure: as §1
Take B2: the “Phage binding ELISA signal, Anti-PSMA Fab” value stood at 1.83.
Regarding B3, the “Phage binding ELISA signal, Anti-PSMA Fab” value worked out at 1.83.
The same measure, in the same setting: next, B4: 1.83.
With B5, the “Phage binding ELISA signal, Anti-PSMA Fab” value came out at 1.84.
Take B6: the “Phage binding ELISA signal, Anti-PSMA Fab” value turned out to be 1.83.
As to B7, the “Phage binding ELISA signal, Anti-PSMA Fab” value worked out at 1.83.
B8: the “Phage binding ELISA signal, Anti-PSMA Fab” value worked out at 1.84.
For the molecule B9, the “Phage binding ELISA signal, Anti-PSMA Fab” value was 1.83.
As to B10, the “Phage binding ELISA signal, Anti-PSMA Fab” value was 1.83.
As to B11, the “Phage binding ELISA signal, Anti-PSMA Fab” value was found to be 1.82.
With B12, the “Phage binding ELISA signal, Anti-PSMA Fab” value is 1.83.
In the case of B13, the “Phage binding ELISA signal, Anti-PSMA Fab” value was determined as 1.82.
Still for that read-out and setting: the value for B14 was 1.84.
On the same count and under the same terms, the value for B15 was 1.83.

For the origin of these results see patent publication US20260242478A1 (published 2026).
